Reference: US20220298218A1 (ANTAG THERAPEUTICS, published 2022)
*1 amine or outer side, *2 acyl side, *3 side chain or, on linkers, in order; H or OH if unused. Where no end group is shown, it is not given here. Side-chain parts run from the residue outwards. The star is where a group is joined. C18 diacid = O=C(O)CCCCCCCCCCCCCCCCC(=O)*; C16 diacid = O=C(O)CCCCCCCCCCCCCCC(=O)*; γGlu = O=C(O)[C@H](CCC(=O)[*:2])N[*:1]; AEEA = NCCOCCOCC(=O)O

molecular target: T1, human GIP receptor (human, UniProt P48546 22-466); assay: cell-based or functional assay
T1 sequence (looked up): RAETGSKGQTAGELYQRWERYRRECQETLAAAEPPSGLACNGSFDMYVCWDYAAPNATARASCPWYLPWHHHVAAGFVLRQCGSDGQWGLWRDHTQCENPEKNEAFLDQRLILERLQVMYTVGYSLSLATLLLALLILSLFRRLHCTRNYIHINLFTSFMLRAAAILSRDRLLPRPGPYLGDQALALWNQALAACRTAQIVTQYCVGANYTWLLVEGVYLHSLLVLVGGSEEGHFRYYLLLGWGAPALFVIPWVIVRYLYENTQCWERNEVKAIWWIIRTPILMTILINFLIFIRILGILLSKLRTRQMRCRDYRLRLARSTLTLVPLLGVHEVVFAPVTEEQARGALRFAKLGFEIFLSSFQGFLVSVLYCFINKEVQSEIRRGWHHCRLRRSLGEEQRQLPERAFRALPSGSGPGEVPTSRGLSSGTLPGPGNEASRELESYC

| Binder | cAMP antagonism [nM] | cAMP antagonism % inhib [%] | cAMP antagonism log [log M] |
| --- | --- | --- | --- |
| SGTFISDYSIAMDRIK([AEEA-AEEA-AEEA-γGlu-C18 diacid])QQDFVNWLLAQRGRRNDW-OH (N-terminus assumed; SMILES CC[C@H](C)[C@H](NC(=O)[C@H](CO)NC(=O)[C@H](Cc1ccc(O)cc1)NC(=O)[C@H](CC(=O)O)NC(=O)[C@H](CO)NC(=O)[C@@H](NC(=O)[C@H](Cc1ccccc1)NC(=O)[C@@H](NC(=O)CNC(=O)[C@@H](N)CO)[C@@H](C)O)[C@@H](C)CC)C(=O)N[C@@H](C)C(=O)N[C@@H](CCSC)C(=O)N[C@@H](CC(=O)O)C(=O)N[C@@H](CCCNC(=N)N)C(=O)N[C@H](C(=O)N[C@@H](CCCCNC(=O)COCCOCCNC(=O)COCCOCCNC(=O)COCCOCCNC(=O)CC[C@H](NC(=O)CCCCCCCCCCCCCCCCC(=O)O)C(=O)O)C(=O)N[C@@H](CCC(N)=O)C(=O)N[C@@H](CCC(N)=O)C(=O)N[C@@H](CC(=O)O)C(=O)N[C@@H](Cc1ccccc1)C(=O)N[C@H](C(=O)N[C@@H](CC(N)=O)C(=O)N[C@@H](Cc1c[nH]c2ccccc12)C(=O)N[C@@H](CC(C)C)C(=O)N[C@@H](CC(C)C)C(=O)N[C@@H](C)C(=O)N[C@@H](CCC(N)=O)C(=O)N[C@@H](CCCNC(=N)N)C(=O)NCC(=O)N[C@@H](CCCNC(=N)N)C(=O)N[C@@H](CCCNC(=N)N)C(=O)N[C@@H](CC(N)=O)C(=O)N[C@@H](CC(=O)O)C(=O)N[C@@H](Cc1c[nH]c2ccccc12)C(=O)O)C(C)C)[C@@H](C)CC) [AT426] | 28 | 80 | -7.6 |
| EGTFISDYSIAMDKIK([AEEA-AEEA-AEEA-γGlu-C16 diacid])QQDFVNWLLAQKGPSSGAPPPS-OH (N-terminus assumed; SMILES CC[C@H](C)[C@H](NC(=O)[C@H](CO)NC(=O)[C@H](Cc1ccc(O)cc1)NC(=O)[C@H](CC(=O)O)NC(=O)[C@H](CO)NC(=O)[C@@H](NC(=O)[C@H](Cc1ccccc1)NC(=O)[C@@H](NC(=O)CNC(=O)[C@@H](N)CCC(=O)O)[C@@H](C)O)[C@@H](C)CC)C(=O)N[C@@H](C)C(=O)N[C@@H](CCSC)C(=O)N[C@@H](CC(=O)O)C(=O)N[C@@H](CCCCN)C(=O)N[C@H](C(=O)N[C@@H](CCCCNC(=O)COCCOCCNC(=O)COCCOCCNC(=O)COCCOCCNC(=O)CC[C@H](NC(=O)CCCCCCCCCCCCCCC(=O)O)C(=O)O)C(=O)N[C@@H](CCC(N)=O)C(=O)N[C@@H](CCC(N)=O)C(=O)N[C@@H](CC(=O)O)C(=O)N[C@@H](Cc1ccccc1)C(=O)N[C@H](C(=O)N[C@@H](CC(N)=O)C(=O)N[C@@H](Cc1c[nH]c2ccccc12)C(=O)N[C@@H](CC(C)C)C(=O)N[C@@H](CC(C)C)C(=O)N[C@@H](C)C(=O)N[C@@H](CCC(N)=O)C(=O)N[C@@H](CCCCN)C(=O)NCC(=O)N1CCC[C@H]1C(=O)N[C@@H](CO)C(=O)N[C@@H](CO)C(=O)NCC(=O)N[C@@H](C)C(=O)N1CCC[C@H]1C(=O)N1CCC[C@H]1C(=O)N1CCC[C@H]1C(=O)N[C@@H](CO)C(=O)O)C(C)C)[C@@H](C)CC) [AT432] | 19 | 92 | -7.7 |
| SGTFISDYSIAMDRIK([AEEA-AEEA-AEEA-γGlu-C16 diacid])QQDFVNWLLAQRGRRNDW-OH (N-terminus assumed; SMILES CC[C@H](C)[C@H](NC(=O)[C@H](CO)NC(=O)[C@H](Cc1ccc(O)cc1)NC(=O)[C@H](CC(=O)O)NC(=O)[C@H](CO)NC(=O)[C@@H](NC(=O)[C@H](Cc1ccccc1)NC(=O)[C@@H](NC(=O)CNC(=O)[C@@H](N)CO)[C@@H](C)O)[C@@H](C)CC)C(=O)N[C@@H](C)C(=O)N[C@@H](CCSC)C(=O)N[C@@H](CC(=O)O)C(=O)N[C@@H](CCCNC(=N)N)C(=O)N[C@H](C(=O)N[C@@H](CCCCNC(=O)COCCOCCNC(=O)COCCOCCNC(=O)COCCOCCNC(=O)CC[C@H](NC(=O)CCCCCCCCCCCCCCC(=O)O)C(=O)O)C(=O)N[C@@H](CCC(N)=O)C(=O)N[C@@H](CCC(N)=O)C(=O)N[C@@H](CC(=O)O)C(=O)N[C@@H](Cc1ccccc1)C(=O)N[C@H](C(=O)N[C@@H](CC(N)=O)C(=O)N[C@@H](Cc1c[nH]c2ccccc12)C(=O)N[C@@H](CC(C)C)C(=O)N[C@@H](CC(C)C)C(=O)N[C@@H](C)C(=O)N[C@@H](CCC(N)=O)C(=O)N[C@@H](CCCNC(=N)N)C(=O)NCC(=O)N[C@@H](CCCNC(=N)N)C(=O)N[C@@H](CCCNC(=N)N)C(=O)N[C@@H](CC(N)=O)C(=O)N[C@@H](CC(=O)O)C(=O)N[C@@H](Cc1c[nH]c2ccccc12)C(=O)O)C(C)C)[C@@H](C)CC) [AT424] | 35 | 100 | -7.5 |
| SGTFISDYSIAMDKIK([AEEA-AEEA-AEEA-γGlu-C16 diacid])QQDFVNWLLAQKGPSSGAPPPS-OH (N-terminus assumed; SMILES CC[C@H](C)[C@H](NC(=O)[C@H](CO)NC(=O)[C@H](Cc1ccc(O)cc1)NC(=O)[C@H](CC(=O)O)NC(=O)[C@H](CO)NC(=O)[C@@H](NC(=O)[C@H](Cc1ccccc1)NC(=O)[C@@H](NC(=O)CNC(=O)[C@@H](N)CO)[C@@H](C)O)[C@@H](C)CC)C(=O)N[C@@H](C)C(=O)N[C@@H](CCSC)C(=O)N[C@@H](CC(=O)O)C(=O)N[C@@H](CCCCN)C(=O)N[C@H](C(=O)N[C@@H](CCCCNC(=O)COCCOCCNC(=O)COCCOCCNC(=O)COCCOCCNC(=O)CC[C@H](NC(=O)CCCCCCCCCCCCCCC(=O)O)C(=O)O)C(=O)N[C@@H](CCC(N)=O)C(=O)N[C@@H](CCC(N)=O)C(=O)N[C@@H](CC(=O)O)C(=O)N[C@@H](Cc1ccccc1)C(=O)N[C@H](C(=O)N[C@@H](CC(N)=O)C(=O)N[C@@H](Cc1c[nH]c2ccccc12)C(=O)N[C@@H](CC(C)C)C(=O)N[C@@H](CC(C)C)C(=O)N[C@@H](C)C(=O)N[C@@H](CCC(N)=O)C(=O)N[C@@H](CCCCN)C(=O)NCC(=O)N1CCC[C@H]1C(=O)N[C@@H](CO)C(=O)N[C@@H](CO)C(=O)NCC(=O)N[C@@H](C)C(=O)N1CCC[C@H]1C(=O)N1CCC[C@H]1C(=O)N1CCC[C@H]1C(=O)N[C@@H](CO)C(=O)O)C(C)C)[C@@H](C)CC) [AT436] | 18 | 100 | -7.7 |
| EGTFISDYSIAMDKIK([AEEA-AEEA-AEEA-γGlu-C16 diacid])QQDFVNWLLAQKGKKNDW-OH (N-terminus assumed; SMILES CC[C@H](C)[C@H](NC(=O)[C@H](CO)NC(=O)[C@H](Cc1ccc(O)cc1)NC(=O)[C@H](CC(=O)O)NC(=O)[C@H](CO)NC(=O)[C@@H](NC(=O)[C@H](Cc1ccccc1)NC(=O)[C@@H](NC(=O)CNC(=O)[C@@H](N)CCC(=O)O)[C@@H](C)O)[C@@H](C)CC)C(=O)N[C@@H](C)C(=O)N[C@@H](CCSC)C(=O)N[C@@H](CC(=O)O)C(=O)N[C@@H](CCCCN)C(=O)N[C@H](C(=O)N[C@@H](CCCCNC(=O)COCCOCCNC(=O)COCCOCCNC(=O)COCCOCCNC(=O)CC[C@H](NC(=O)CCCCCCCCCCCCCCC(=O)O)C(=O)O)C(=O)N[C@@H](CCC(N)=O)C(=O)N[C@@H](CCC(N)=O)C(=O)N[C@@H](CC(=O)O)C(=O)N[C@@H](Cc1ccccc1)C(=O)N[C@H](C(=O)N[C@@H](CC(N)=O)C(=O)N[C@@H](Cc1c[nH]c2ccccc12)C(=O)N[C@@H](CC(C)C)C(=O)N[C@@H](CC(C)C)C(=O)N[C@@H](C)C(=O)N[C@@H](CCC(N)=O)C(=O)N[C@@H](CCCCN)C(=O)NCC(=O)N[C@@H](CCCCN)C(=O)N[C@@H](CCCCN)C(=O)N[C@@H](CC(N)=O)C(=O)N[C@@H](CC(=O)O)C(=O)N[C@@H](Cc1c[nH]c2ccccc12)C(=O)O)C(C)C)[C@@H](C)CC) [AT416] | 52 | 90 | -7.3 |
| FISDYSIAMDKIK(C16 diacid)QQDFVNWLLAQKGKKNDWKHNITQ-OH (N-terminus assumed; SMILES CC[C@H](C)[C@H](NC(=O)[C@H](CO)NC(=O)[C@H](Cc1ccc(O)cc1)NC(=O)[C@H](CC(=O)O)NC(=O)[C@H](CO)NC(=O)[C@@H](NC(=O)[C@@H](N)Cc1ccccc1)[C@@H](C)CC)C(=O)N[C@@H](C)C(=O)N[C@@H](CCSC)C(=O)N[C@@H](CC(=O)O)C(=O)N[C@@H](CCCCN)C(=O)N[C@H](C(=O)N[C@@H](CCCCNC(=O)CCCCCCCCCCCCCCC(=O)O)C(=O)N[C@@H](CCC(N)=O)C(=O)N[C@@H](CCC(N)=O)C(=O)N[C@@H](CC(=O)O)C(=O)N[C@@H](Cc1ccccc1)C(=O)N[C@H](C(=O)N[C@@H](CC(N)=O)C(=O)N[C@@H](Cc1c[nH]c2ccccc12)C(=O)N[C@@H](CC(C)C)C(=O)N[C@@H](CC(C)C)C(=O)N[C@@H](C)C(=O)N[C@@H](CCC(N)=O)C(=O)N[C@@H](CCCCN)C(=O)NCC(=O)N[C@@H](CCCCN)C(=O)N[C@@H](CCCCN)C(=O)N[C@@H](CC(N)=O)C(=O)N[C@@H](CC(=O)O)C(=O)N[C@@H](Cc1c[nH]c2ccccc12)C(=O)N[C@@H](CCCCN)C(=O)N[C@@H](Cc1c[nH]cn1)C(=O)N[C@@H](CC(N)=O)C(=O)N[C@H](C(=O)N[C@H](C(=O)N[C@@H](CCC(N)=O)C(=O)O)[C@@H](C)O)[C@@H](C)CC)C(C)C)[C@@H](C)CC) [AT466] | 16 | 90 | -7.8 |
